From a protein production outcome set (Wang et al. 2014) come the findings set out here.

The data set can be described thus: label from the status in PepcDB records.
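Note: failed if final PepcDB status was selected cloned or expressed and not failed if soluble or beyond.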

With “MLKERAGAVSAGLRALDLALVAAAFGLALALRAAVDVPAVPPLLPAGRHLAWLAVALALWPAAAGAAGVYGQYRTRSRREEILRLARAVGLLALGVAAASFLGRDRDLSRLLLLGWNGIALVLLAGSRVAVRTLAHEARRRGHNTRAFAVVGSGPMARAMRQRLLARPEWGFTFAGFVLEEGAPRRGIPGPVLGRVDELAAVLERYVVDLVVFAVPRDRLPGMEAAVAACQEQGVVAKIGLEPFPPRHGRLTVEDLDGIPVLSYASAPQDALPLLAKRAIDVVASALALVVLSPLLAAVALAVRLDSPGPVLFRQRRVGLSGRTFTLYKFRSMRAGAEAEQARLADRNEMDGPVFKLRDDPRVTRVGKVLRRTSLDELPQLWNVLRGEMSLVGPRPPLPDEVRRYERWQRRRLSVKPGLTCTWQVSGRSEVGFGRWMQLDLDYIDRWSLWQDVRIVLRTIPAVLLGRGAR”, the protein production result was “failed”. For “MLKERLKAFFSADSVFTLIFALFFLTSFKKPLTQVLLIVLMVFLFFRCYFQASLKETFAINHLKTMSFKWLTLAFLGVFLSIFPNMFNMHDSQTFRYNLFALNMSLTYACGALCLLFASCLRIKLNQKILFYSMAVANFINGLLSLVQKIYFNMPRAQGFSTVKEYVVLVSVSILGCYIYALYSHNQKEKLFFTLSVFVGFLVVILSATRSATIAFVITFLILSCFILYAKKSLKPLGYMVVVSLILSALYVGSNALEKKGAIEQSRVQNQSFEEDLKRYAKKDADSSIGWRLERWKEALTVLRLRPFFGMAASEKCQRLEEILSLSKSYRAKDLILCYERYDNQIIHILATRGIIGFLIWLFFLLVIVKIFWSGIKQNSLISFFILMTLAFYLIFGIGFDPFDFFITGSFFVGMIMMAVFLKKDKSAF” the value was “failed”; for “MLKFNKVFMYITASALSVSLWTCTSFAQQNKTGVTTASMLNMRENPSTSTKIIDQIPNGTKVDIIETSNGWYKISYNGKTGWVYGSYVKVTETPKLTVTDETILATLNKGSTGNSSTNSSTNNSAVNNSSSQVVDETIQKPAQNAASGENTENTVVKTGIVKASALNVRQGPGTSYSIINQLSNGAKVNIIKEESGWYQIKLANGSTGWVSGTYVNVNTTIASRGGLSENSAPAASNNSDVSGVRQQVVEYAKKFLGVKYVYGGNSPSQGFDCSGFVKYVFSNFGINLERVAASQAKQGTWVSKDQLLPGDLVFFDTDGGHNYINHSGIYIGDGKFIHASSGSGKKSVVISDLTSGFYANTYMTARRVLN”, “failed”; for “MLKGKVALVTGASRGIGRAIAKRLANDGALVAIHYGNRKEEAEETVYEIQSNGGSAFSIGANLESLHGVEALYSSLDNELQNRTGSTKFDILINNAGIGPGAFIEETTEQFFDRMVSVNAKAPFFIIQQALSRLRDNSRIINISSAATRISLPDFIAYSMTKGAINTMTFTLAKQLGARGITVNAILPGFVKTDMNAELLSDPMMKQYATTISAFNRLGEVEDIADTAAFLASPDSRWVTGQLIDVSGGSCL”, “not failed”.

Consider “MLKGKYTKIEKVNGVEREYLITDKYGITIGRIFIVDLNKDNRFCMFRMKIYKQGKSINTYIKEILSVFMEFLFKSNDINKVNIIVDEEVSTQPFVELGFAFEGIINKSIIEKNVLKDEFLFGMDYKNYNSDRINVFKLYGKSITLKVLTPEDAENMLQYYIKNKEHLKPFEPEREESFYTFEAQKQMLIENYKQFINGEGTNFGIYKDAKLIGKIQISGTIYGVFKSAIIGYSIDKDYQGKGYMKDALRVAEAYAFNVMNLHRIEASALVDNLRSQNVLIGCGFEKLGINKNYLFINGRWQDHITFYKTNNN”, for which the protein production entry is given as “failed”.

Take “MLKGPLKGCLNMSKKVIVIAGTTGVGKSQLSIQLAQKFNGEVINSDSMQVYKDIPIITNKHPLQEREGIPHHVMNHVDWSEEYYSHRFETECMNAIEDIHRRGKIPIVVGGTHYYLQTLFNKRVDTKSSERKLTRKQLDILESTDPDVIYNTLVKCDPDIATKYHPNDYRRVQRMLEIYYKTGKKPSETFNEQKITLKFDTLFLWLYSKPEPLFQRLDDRVDDMLERGALQEIKQLYEYYSQNKFTPEQCENGVWQVIGFKEFLPWLTGKTDDNTVKLEDCIERMKTRTRQYAKRQVKWIKKMLIPDIKGDIYLLDATDLSQWDTNASQRAIAISNDFISNRPIKQERAPKALEELLSKGETTMKKLDDWTHYTCNVCRNADGKNVVAIGEKYWKIHLGSRRHKSNLKRNTRQADFEKWKINKKETVE”: the protein production result is reported as “failed”. For “MLKHLDRSKKGKVARSFLQAISKDEAVAPPLRVVQIEGLAVLKIIKHCKEFSPTLVTGQLLGLDVGSVLEVTNCFPFPVRDDDEEIEADGANYQLEMMRCLREVNVDNNTVGWYQSTVLGSYQTVELIETFMNYQENIKRCVCIIYDPSKADLGVLALKALKLSDSFMELYRGGNFTGEKLREKNFSWMDIFEEIPIKVSNSALVSAFMTELETDTPVSQGDYDRLHSSTTPFLENNMEFLIKCMDDLSMEQQKFQYYYRNLSRQQAQQQAWLQKRRTENMARKSAGEEPLPEEDPSNPIFKAIPEPSRLESFLITNQVSNFCGQINGVAGQNFSRLYLTKALHDN” the value was “failed”. For “MLKIFSTQLSGYFSRVSQKEEMNIEDSARLLAQALVGEGFIYLHGTNEMEGVVAEALFGAEPMKQAKRLFENGKEVEVTSADRVLLISRFSTDEEVVAIAKKLQADGHSIVGISAIQEGNESLEQYTDVHIDTKLLKGLIPDDEGNRYGFPSLMIALFAYHGIKFTIDEMLNEY” the value was “not failed”; for “MLKILKRIVQDVTAASDLKEALGILVQRINTAINAEAVSVYLIDNKNAEYVLIATEGLNKQAEFRVRIALDCGLIGLIGRREEPINIENAPSHPDFYHNPLIGEDHLNAFLGVPIIQHRKLYGVLVVQQLEQRYFDDAEESFLITLAAQLGGIIAHAEATGELAELTQ”, “failed”; for “MLKKEYLKNPYLVLFAMIILAYVFSVLCRFYWIWWASEFNEYFFNNQLMIISNDGYAFAEGARDMIAGFHQPNDLSYYGSSLSTLTYWLYKITPFSFESIILYMSTFLSSLVVIPIILLANEYKRPLMGFVAALLASVANSYYNRTMSGYYDTDMLVIVLPMFILFFMVRMILKKDFFSLIALPLFIGIYLWWYPSSYTLNVALIGLFLIYTLIFHRKEKIFYIAVILSSLTLSNIAWFYQSAIIVILFALFALEQKRLNFMIIGILGSATLIFLILSGGVDPILYQLKFYIFRNDESANLTQGFMYFNVNQTIQEVENVDFSEFMRRISGSEIVFLFSLFGFVWLLRKHKSMIMALPILVLGFLALKGGLRFTIYSVPVMALGFGFLLSEFKAILVKKYSQLTSNVCIVFATILTLAPVFIHIYNYKAPTVFSQNEASLLNQLKNIANREDYVVTWWDYGYPVRYYSDVKTLVDGGKHLGKDNFFPSFALSKDEQAAANMARLSVEYTEKSFYAPQNDILKSDILQAMMKDYNQSNVDLFLASLSKPDFKIDTPKTRDIYLYMPARMSLIFSTVASFSFINLDTGVLDKPFTFSTAYPLDVKNGEIYLSNGVVLSDDFRSFKIGDNVVSVNSIVEINSIKQGEYKITPIDDKAQFYIFYLKDSAIPYAQFILMDKTMFNSAYVQMFFLGNYDKNLFDLVINSRDAKVFKLKI”, “failed”. For “MLKKIDDSESLLDTAALAPLQRFVERECRLLDEQRFEEWLALYLPEATYWAPATRDNPDPDSQVSLFWDDKETMQTRVQRLLHPEIHSQIPASVTVRLTSNFRAAVAPGGEKDAYQVECRFIMVEDRLGSPRQQFAGTFNYLLVQNGAAFRIRQKRVDLTNCDHAFHTLTQPF” the value was “not failed”.

As to “MLKSKIKEEYVQMDQVDWKPFPAAFSTGGIRWKLLHVSPEMGSWTAIFDCPAGSSFAAHVHVGPGEYFLTKGKMDVRGGKAAGGDTAIAPGYGYESANARHDKTEFPVASEFYMSFLGPLTFVKPDGSPIAVIGWEDAQGAWAA”, the protein production entry was “not failed”. For “MLKTTISPIFSSFTGKPKCSSKLFFRAFSKVVLQDTPPSARRNASTNLTTLHKGPPTSAYVHLPFCRKRCHYCDFPILALGMSSSSARPSNVYEEGKEDDPRITNYVNLLVREIKATRTDFDTNPNLETVFFGGGTPSLVPPKLVSLILETLSLNFGLSPDAEISMEMDPGTFDGQKLKDLMKLGVNRVSLGVQAFQDELLKACGRAHGVSQVYEAIEFVKECGVENWSMDLISSLPHQTLEMWEESLRLAIESQPNHVSVYDLQVEQGTKFGNLYTPGQSPLPSETQSAEFYKTASSMLRGAGYEHYEVSSYSRDGFKCKHNLIYWKNKPFYAFGLGSASYVGGLRFSRPRRLKEYTNYVADLENGAANWCGNGDVDLKDVATDILMLSFRTSKGLELKEFGEAFGSEVVKSICKVYEPYVESGHIVCLDDMRSEVMIDEFKTLVANDEVKIEDHVRYLRLKDPDGFLLSNELISLSFGVVAP” the value was “failed”; for “MLLDEIKRMSYDELKRLAEDIRKRITEVVLKNGGHLASNLGTIELTLALYRVFDPREDAIIWDTGHQAYTHKILTGRDDLFHTIRTFGGLSGFVTRRESPLDWFGTGHAGTSIAAGLGFEKAFELLGEKRHVVVVIGDGALTSGMALEALNQLKNLNSKMKIILNDNGMSISPNVGGLAYHLSKLRTSPIYLKGKKVLKKVLEKTEIGFEVEEEMKYLRDSLKGMIQGTNFFESLGLKYFGPFDGHNIELLEKVFKRIRDYDYSSVVHVVTKKGKGFTAAEENPTKYHSASPSGKPKMLSYSELLGHTLSRVAREDKKIVAITAAMADGTGLSIFQKEHPDRFFDLGITEQTCVTFGAALGLHGMKPVVAIYSTFLQRAYDQIIHDVALQNAPVLFAIDRSGVVGEDGPTHHGLFDINYLLPVPNMKIISPSSPEEFVNSLYTVLKHLDGPVAIRYPKESFYGEVESLLENMKEIDLGWKILKRGREAAIIATGTILNEVLKIPLDVTVVNALTVKPLDTAVLKEIARDHDLIITVEEAMKIGGFGSFVAQRLQEMGWQGKIVNLGVEDLFVPHGGRKELLSMLGLDSEGLTKTVLTYIKARSREGKV”, “failed”; for “MLLEPLKQLKQADARLNMTQGVLEGVVGEELGVLPGMDSIFSMLELERLVGFFRQATRKNHKGKPFDVIIYDGISTEETLRMIGLSSKTRLYAKYLRSLAEKTDLGRLTSPSIMRFVDESMNINSNKSPFDGMTSPAMWDTLERFLETGASAWRDPERFRSFLVMDPNNPMSVKAALRYWGCTVQAGSHVSGAFAISSSHLTSQIPKADFVPLPFASASVPFTITGLDWDKILLDQANSSIRELLSETVSHGTSLTQTVMFDTAKKLVTLFMPGFEKSEIKLYQYRGGSELLIEAGDQRRVIHLPSQIQGKVGGAKFVDRSLIVTMR”, “failed”. For “MLLFWLEFIGIFIAIFVSAELLAKGADELEDFLGQGITGGIILGFLTALPETIFVIVASLEGSFDVALGSAIGGNVLLFTLGIGLVGVFYAFKWRTALQISSEYSVENVFLVLTTIGMLLVLIYGKLNIISGLLLILIYVIYVVYRVAKFRREGMEREKGNLMKPVGFIIAGGVLLVVFSHYFVEYINEIAIMFNVPAIWLSLVIAPIAGELEEKISAFRLVLMSKDGGSLSILSFVGSKIENATVLLGIIGIFTDYELQQALPEYASSLIANMIALYVLFDKRLKTFESVILIGVYVIIVILSFYL” the value was “failed”; for “MLLFWVEFIGTFIGLFISAELIAKGADELEEVLGQGITGGILLGFITALPETIFVIIASLGGSLDVAFGSAIGGNILLFTVGAGLVGIVYFWKWKNNLVMDQEYQVENKFLIISTVALVLITLYSKLNVIAGVCLILIYVYYVIYRLRKFKRDKPIAKKEVDYVKISIFMVVGAILLIILSHYFVEQLDQISLSFGIPAVWISLVLSPIAGELEEKISAFRLITLSKKGGSLSLLSFVGSKIENNTVLLGIIGLFGDYSLRPVIPEMVSLILVNVSVLRVLFDRKLTVLESSLLIIAYAVIIIALYYL”, “failed”.
